Laboratory results as given in patent publication US7847064B2, “Methods and compositions for regulating gene expression in plant cells” (Donald Danforth Plant Science Center, priority 2004, dated 2010).

Key:
[1] = system: E fragment of the RTBV promoter; assay: Co-transfection of E::GUS with RF2a and/or RF2b constructs in BY-2 protoplasts; assay type: cell-based, tobacco
Source text: Nevertheless, the E fragment may be further stimulated by co-transfecting the BY-2 protoplasts with constructs that encode the RF2a and/or RF2b transcription factors. In this Example, the E fragment was activated in tobacco BY-2 protoplasts by co-transfection of E::GUS with CsVMV::RF2b, CaMV 35S::RF2a and CaMV 35S::RF2a/CsVMV::RF2b using methods well-known in the art.

[2] = system: Box II, Box IIm1 and Box IIm2 elements; assay: Surface Plasmon Resonance binding (BIAcore 2000); details: for DNA binding behavior (association and dissociation): 1:1 binding with a mass transfer model
Protocol: To compare the binding affinities of RF2a and RF2b with the Box II element and its mutants, real time Surface Plasmon Resonance (“SPR”) measurements were conducted using a BIAcore 2000 instrument. The binding affinities of RF2a and RF2b to these DNA targets were measured on chips on which biotin labeled-Box II, -Box IIm1 and -Box IIm2 elements were immobilized.
The association and de-association constants were determined using BIAevaluation 3.1 software—using 1:1 binding with a mass transfer model. […] Furthermore, the DNA binding behavior of RF2a and RF2b are quite different from each other. […] The differences in the affinity of RF2a to the Box II element and its mutants, however, are not as dramatic as the differences of RF2b, while the relative order of affinities to the different target elements is the same for both proteins (FIG. 8).

E(Box IIm1) promoter = assay: BY-2 protoplast transient assay, reporter pE(Box IIm1)::GUS with RF2a/RF2b effectors; assay type: cell-based, tobacco; details: co-transfection, BY-2 protoplasts
Source text: (§1) To illustrate the biological relevance of the differences in the binding affinities described above, the pE::GUS, pE(Box IIm1)::GUS and pE(Box IIm2)::GUS constructs were used as reporters in BY-2 protoplast transient assays. In these assays, CaMV 35S::RF2a, CsVMV::RF2b and CaMV 35S::RF2a/CsVMV::RF2b were used as effectors. All results were normalized against the GFP internal control. The relative GUS activities of different sets of transfection assays are shown in FIG. 9 for the Box IIm1 element, and FIG. 10 for the Box IIm2 element.

E(Box IIm2) promoter = assay: BY-2 protoplast transient assay, reporter pE(Box IIm2)::GUS with RF2a/RF2b effectors; assay type: cell-based, tobacco; details: co-transfection, BY-2 protoplasts, normalized against GFP
Source text: as §1

5XG-35S:GUS = assay: MOF induced GUS activity in Arabidopsis plants with VGE, AGE or A5A5GE; assay type: in vivo, Arabidopsis thaliana; details: for activation of GUS expression, T2 generation plants: induced with MOF, plant lines #11, #11, #18; for activation of GUS expression, T1 generation plants: soil drench 1:10,000 dilution of MOF (61.3 μM) for 60 hours
Protocol: In this Example, Arabidopsis thaliana Col-0 plants were transformed with A. tumefaciens bacterium (strain GV3101) containing effector constructs comprising the CsVMV promoter operably linked to a nucleic acid sequence (SEQ ID NO:104) encoding the GE protein, plus (i) a nucleic acid sequence encoding the VP16 acidic activation domain of the herpes simplex virus, (ii) a sequence (SEQ ID NO:9) encoding the full RF2a acidic domain, or (iii) a sequence (2×SEQ ID NO:102) encoding a dimer of the A5 minimal acidic domain of RF2a (“A5A5”). The foregoing VP16 acidic domain-, RF2a acidic domain-, and A5A5 domain-encoding sequences were oriented to express such domains at the N-terminal of the GE protein. FIG. 28 refers to these constructs as VGE, AGE, and A5A5GE, respectively.
The foregoing effector constructs were prepared using standard DNA cloning and PCR procedures, and plasmids containing nucleic acid sequences encoding the VP16 acidic domain, the full length RF2a acidic domain (SEQ ID NO:6), the A5A5 domain (2×SEQ ID NO:101), and the GE domain (SEQ ID NO:103). Those of ordinary skill in the art will appreciate, however, that such effector sequences (and derivatives thereof) may also be constructed synthetically using standard procedures. The reporter construct described in Example 17 above, 5XG-35S:GUS, was used in this Example.
Next, plasmids containing the effector and reporter constructs described above were transferred by electroporation into A. tumefaciens strain GV3101. Agrobacterium isolates that contained the respective plasmids were used to transform A. thaliana Col-0 using a standard floral dip method (Clough and Bent, 1998). Seeds from the T1 generation were collected and germinated in Murashige and Skoog medium (Murashige and Skoog, 1962) containing a selective component (hygromycin B (30 μg/mL).
The seedlings that survived the selection were grown in soil in a growth chamber and allowed to self-fertilize. Next, T2 generation seeds were collected and germinated in Murashige and Skoog medium, which contained hygromycin B (30 μg/mL). The seedlings that survived the selection in a 3:1 segregation pattern were grown in soil in a growth chamber (under 12 hours of light/12 hours of dark per day, at 22° C., 50% humidity).
Analysis of T1 Generation Plants—In this Example, 22 T1 plants were analyzed for methoxyfenozide (MOF) induced gene expression. […] The supernatants were analyzed for GUS enzymatic activity as described in Example 16 above.
Analysis of T2 Generation Plants—A total of 16 different plants from a T2 generation plant line (having a segregation of the reporter/effector constructs of 3:1), wherein each plant contained a VGE, AGE, or A5A5GE effector construct, were induced with MOF and analyzed for GUS activity (as described above). […]

[3] = system: transgenic rice and tobacco plants; details: Yin et al., 1997; Petruccelli et al., 2001; cited from earlier work
[4] = system: Nicotiana tabacum cv. Xanthi NN; assay: Phenotype of transgenic tobacco plants overexpressing RF2a or RF2a mutants; assay type: in vivo; details: CaMV 35S promoter driven, T1 generation, greenhouse
Source text: (Yin et al., 1997; Petruccelli et al., 2001). […] Fifteen or more independent transgenic tobacco lines were developed with the constructs described below through Agrobacterium-mediated transformation.
Plasmids for Agrobacterium-mediated transformation—The fusion genes described above relating to the plant expression constructs comprising RF2a deletion mutants were released from pMON999-derived plasmids using NotI (blunted) and cloned into the binary vector pGA-E::GUS (Petruccelli et al., 2001) using the blunt HindIII site (downstream of a CaMV 35S promoter sequence). The final plasmids were named pGA-E::GUS/P-35S::ΔP, pGA-E::GUS/P-35S::ΔQ, pGA-E::GUS/P-35S::ΔPΔA and pGA-E::GUS/P-35S::ΔPΔQ. A plasmid encoding full-length RF2a, p35S::RF2a, was also constructed using the methods described herein.
Tobacco transformation—the plasmids described above were introduced into Agrobacterium tumefaciens strain LBA4404 and used for tobacco transformation. Leaf discs from Nicotiana tabacum cv. Xanthi NN were transformed with the various plasmids following the protocol of Horsch et al. (1988). At least 15 independent transgenic lines were produced with each gene construct. Transgenic plants were self-fertilized, and T1 seeds were collected. The T1 seeds were germinated on Murashige and Skoog medium (Murashige and Skoog, 1962) with kanamycin (100 mg/L) selection, and Kan^r seedlings were grown in a greenhouse for observation.
The phenotype caused by 35S::RF2a-ΔPΔA was similar to, but less severe than, the phenotype caused by 35S::RF2a-3Δ. […] (FIG. 19(C)).

Row | Molecule | activation of the E fragment by over-expression [1] | DNA binding behavior (association and dissociation) [2] | activity of the E(Box IIm1) promoter compared with the E wild type promoter (E(Box IIm1) promoter) | increase of promoter activity of E(Box IIm1) (E(Box IIm1) promoter; normalized against GFP) | increase of promoter activity of E(Box IIm2) (E(Box IIm2) promoter) | activation of GUS expression, T2 generation plants (5XG-35S:GUS) | activation of GUS expression, T1 generation plants (5XG-35S:GUS) | appearance and reproduction of overexpressing plants [3] | binding affinities to the Box II, Box IIm1 and Box IIm2 elements ([2]; compared to RF2b, biotin labeled elements immobilized on chips) | phenotype of transgenic tobacco plants [4]
1 | RF2b: bZIP transcription factor isolated through interaction with RF2a, SEQ ID NO:5 (protein, This sequence was artificially derived and/or created by the inventors.) MQEPKHTDPAAMRGAHHRRARSEVAFRLPDDLDLGGGGAGAFDEIGSEDDLFSTFMDIEKISSGPAAAGGSDRDRAAETSSPPRPKHRHSSSVDGSGFFAAARKDAAASLAEVMEAKKAMTPEQLSDLAAIDPKRAKRILANRQSAARSKERKARYITELERKVQTLQTEATTLSAQLTLFQRDTTGLSAENAELKIRLQAMEQQAQLRDALNDALKQELERLKLATGEMTNSNETYSMGLQHVPYNTPFFPLAQHNAARQNGGTQLPPQFQPPRPNVPNHMLSHPNGLQDIMQQDPLGRLQGLDISKGPLVVKSESSSISASESSSTF | activated above a strong background expression | binds slowly to the DNA target and releases from the target relatively quickly | as high as the expression of the E wild type promoter in BY-2 protoplasts | about 7 fold | about 5.8 fold | – | – | – | – | –
2 | A5A5GE: (2 × SEQ ID NO: 101 (A5)) + SEQ ID NO: 103 (GE) (protein, listed as Oryza sp., A combination of the Gal4 protein and Ecdysone receptor) EILSLPEDLDLCAAGGGDGPSLSDENDEEEILSLPEDLDLCAAGGGDGPSLSDENDEEKLLSSIEQACDICRLKKLKCSKEKPKCAKCLKNNWECRYSPKTKRSPLTRAHLTEVESRLERLEQLFLLIFPREDLDMILKMDSLQDIKALLTGLFVQDNVNKDAVTDRLASVETDMPLTLRQHRISATSSSEESSNKGQRQLTVSGGSRRISWPECVVPETQCAMKRKEKKAQKEKDKLPVSTTTVDDHMPPIMQCEPPPPEAARIHEVVPRFLSDKLLETNRQKNIPQLTANQQFLIARLIWYQDGYEQPSDEDLKRITQTWQQADDENEESDTPFRQITEMTILTVQLIVEFAKGLPGFAKISQPDQITLLKAFSSEVMMLRVARRYDAASDSVLFANNQAYTRDNYRKAGMAYVIEDLLHFCRCMYSMALDNIHYALLTAVVIFSDRPGLEQPQLVEEIQRYYLNTLRIYILNQLSGSARSSVIYGKILSILSELRTLGMQNSNMCISLKLKNRKLPPFLEEIWDVADMSHTQPPPILESPTNL | – | – | – | – | – | activated GUS expression (in the T2 generation plants) in the presence of the MOF inducer as strong as VP16 | activated GUS expression in the presence of the MOF inducer as strong as VP16 | – | – | –
3 | AGE: SEQ ID NO: 6 (A) + SEQ ID NO: 103 (GE) (protein, This sequence was artificially derived and/or created by the inventors.; A combination of the Gal4 protein and Ecdysone receptor) MGHRRAHSEILSLPEDLDLCAAGGGDGPSLSDENDEELFSMFLDVEKLNSTCGASSEAEAESSSAAAKLLSSIEQACDICRLKKLKCSKEKPKCAKCLKNNWECRYSPKTKRSPLTRAHLTEVESRLERLEQLFLLIFPREDLDMILKMDSLQDIKALLTGLFVQDNVNKDAVTDRLASVETDMPLTLRQHRISATSSSEESSNKGQRQLTVSGGSRRISWPECVVPETQCAMKRKEKKAQKEKDKLPVSTTTVDDHMPPIMQCEPPPPEAARIHEVVPRFLSDKLLETNRQKNIPQLTANQQFLIARLIWYQDGYEQPSDEDLKRITQTWQQADDENEESDTPFRQITEMTILTVQLIVEFAKGLPGFAKISQPDQITLLKAFSSEVMMLRVARRYDAASDSVLFANNQAYTRDNYRKAGMAYVIEDLLHFCRCMYSMALDNIHYALLTAVVIFSDRPGLEQPQLVEEIQRYYLNTLRIYILNQLSGSARSSVIYGKILSILSELRTLGMQNSNMCISLKLKNRKLPPFLEEIWDVADMSHTQPPPILESPTNL | – | – | – | – | – | activated GUS expression (in the T2 generation plants) in the presence of the MOF inducer as strong as VP16 | activated GUS expression in the presence of the MOF inducer as strong as VP16 | – | – | –
4 | RF2a: rice bZIP transcription factor, SEQ ID NO:4 (protein, This sequence was artificially derived and/or created by the inventors.) MNREKSPIPGDGGDGLPPQATRRAGPPAAAAAAEYDISRMPDFPTRNPGHRRAHSEILSLPEDLDLCAAGGGDGPSLSDENDEELFSMFLDVEKLNSTCGASSEAEAESSSAAAHGARPKHQHSLSMDESMSIKAEELVGASPGTEGMSSAEAKKAVSAVKLAELALVDPKRAKRIWANRQSAARSKERKMRYIAELERKVQTLQTEATTLSAQLALLQRDTSGLTTENSELKLRLQTMEQQVHLQDALNDTLKSEVQRLKVATGQMANGGGMMMNFGGMPHQFGGNQQMFQNNQAMQSMLAAHQLQQLQLHPQAQQQQVLHPQHQQQQPLHPLQAQQLQQAARDLKMKSPMGGQSQWGDGKSGSSGN | activated above a strong background expression | bind rapidly to the DNA target and slowly dissociates from the target | – | – | – | – | – | normal in appearance and reproduction | relatively higher binding affinities | did not exhibit abnormal phenotypes
